# Experimental data published in patent publication US20250000989A1 (JIANGSU HENGRUI PHARMACEUTICALS, published 2025).
# B1: ADC-22 (antibody, human IgG1, kappa, V domains shown)
# VH: EVQLVQSGAEVKKPGASVKVSCKASGYTFTSYWMHWVRQAPGQRLEWMGMIHPNSGSTNYNEKFKGRVTITRDTSASTAYMELSSLRSEDTAVYYCARLKTGNSFDYWGQGTTVTVSS
# VL: DIVLTQSPDSLAVSLGERATINCKSSQSLLNSGNQKNYLTWYQQKPGQPPKLLIYWASTRESGVPDRFSGSGSGTDFTLTISSLQAEDVAVYYCQNAYTYPFTFGQGTKLEIKR
# modifications: Asn at position 297 (Eu numbering) carries the remodeled N297 glycan chain from OLS-4, conjugated to the PBD drug linker LD-11; average drug loading y=1.96
# B2: ADC-20 (antibody, human IgG1, kappa, V domains shown)
# VH: QVQLVQSGGGLVQPGRSLRLSCAASGFTFDDYAMHWVRQAPGKGLEWVSGISWNSGSIGYADSVKGRFTISRDNAKNSLYLQMNSLRAEDTALYYCAKEGLPGLDYWGQGTLVTVSS
# VL: DIQMTQSPSSLSASIGDRATITCRASQHVGTYLNWYQQKPGKTPKLLISGAANLQSGVPSRFSGSGSGTDFTLTISSLQPEDFATYYCQQSYNTPPFSFGQGTKVEIKR
# modifications: Asn at position 297 (Eu numbering) carries the remodeled N297 glycan chain from OLS-4, conjugated to the PBD drug linker LD-11; average drug loading y=1.98
# Experiments:
# human Claudin18.2 = human Claudin18.2 (human); test: cell-based or functional assay
# HER3 = HER3 (UniProt P21860 20-1342, limits assumed); test: cell-based or functional assay
Binder,"EC50 (nM), in vitro killing (CTG cell viability) of cells highly expressing NUGC4-claudin18.2 (human Claudin18.2) [nM]","EC50 (nM), in vitro killing (CTG cell viability) of cells lowly expressing NUGC4-claudin18.2 (human Claudin18.2) [nM]","EC50 (nM), in vitro killing (CTG cell viability) of cells moderately expressing NUGC4-claudin18.2 (human Claudin18.2) [nM]","EC50 (nM), killing effect (CTG) on FaDu++ (HER3) [nM]","EC50 (nM), killing effect (CTG) on MCF7++++ (HER3) [nM]","EC50 (nM), killing effect (CTG) on SW620+++ (HER3) [nM]"
B1,2.1,11.7,9.8,–,–,–
B2,–,–,–,39.9,114,29.3
